In the supplement of paper PMC10567573:
± gives the standard deviation.

Assay: protein stability index of a GFP-peptide fusion (GPS, HEK-293T) (PSI 1-6); higher = more stable
[1] = treatment: DMSO, c terminus: a fixed tail appended
[2] = treatment: MLN4924 1 uM, 8 h, c terminus: a fixed tail appended
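Also: 24-mer peptide tiles fused after GFP, lentivirally expressed, FACS-sorted into six equal bins by GFP/DsRed ratio, decoded by Illumina sequencing, PSI is the read-weighted mean bin number.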

Sequence | protein stability index [1] | protein stability index [2] | protein stability index (treatment: DMSO, c terminus: native) | protein stability index (treatment: MLN4924 1 uM, 8 h, c terminus: native)
PPRRGVSGDRDENSFSLNSSISSS [MAP2] | 4.84 ± 0.14 | 4.74 ± 0.24 | – | –
TPPEEQQEAEEPKARVLRSKSLCH [CDC25B] | 5.37 ± 0.26 | 5.37 ± 0.24 | – | –
VEYEERESEFDIEDEDKSEPEQTG [RBBP5] | 5.64 ± 0.23 | 5.54 ± 0.32 | – | –
PERSDLTLYLIVALATVSLLSLVT [PCDHGC5] | 2.02 ± 0.44 | 2.27 ± 0.56 | – | –
GTLSMGVPQIFKYGETCFPKGRFE [ZNF24] | 2.83 ± 0.11 | 2.56 ± 0.27 | – | –
LPHLQDSFVDKLLDLMPRLMTSKP [INTS4] | 2.16 ± 0.2 | 2.15 ± 0.24 | – | –
LEEGENPVPAFQSDGTDEPESKEP [SMG5] | 5.65 ± 0.24 | 5.65 ± 0.2 | – | –
VVKYRRPMDVYETGIEYIVAQGPT [ADAMTSL2] | 2.13 ± 0.5 | 2.25 ± 0.46 | – | –
RAALISRRHLQFWKSHLRNVQRPL [RHOBTB2] | 2.56 ± 0.13 | 2.56 ± 0.22 | – | –
NYMNAAMVHINRALKLIIRLFLVE [RTN3] | 2.24 ± 0.21 | 2.27 ± 0.26 | – | –
MCNVKAPLGSPSPRPRRAKRFASL [ADAMTS4] | 3.69 ± 0.26 | 3.77 ± 0.21 | – | –
QNQHHSASLQASIFSGAASLGYGT [APBB1IP] | 3.19 ± 0.16 | 3.15 ± 0.17 | – | –
FLTFDKQVLRFYAIWDDTDSMYGE [EFHC1] | 2.49 ± 0.41 | 2.46 ± 0.55 | – | –
PQTPAAPPATLGEGSADTEDRKLP [EHMT1] | 5.44 ± 0.28 | 5.36 ± 0.35 | – | –
WEEWQFLSPAQKDLYRDVMLENYS [ZNF649] | 3.48 ± 0.35 | 3.6 ± 0.2 | – | –
SSNHGCQHECVNTDDSYSCHCLKG [MATN2] | 4.95 ± 0.08 | 5.1 ± 0.2 | – | –
LFSLNVISLTCVSVAFAVAWFLPM [SLC19A2] | 3.12 ± 0.48 | 2.8 ± 0.23 | – | –
PHSDQRLRPQRTKQYVLLSILLCL [TMEM106C] | 2.34 ± 0.48 | 2.11 ± 0.17 | – | –
YLATAKVLITVEDVNDNSPELTIT [PCDHGA10] | 2.49 ± 0.2 | 2.44 ± 0.22 | – | –
SVDEQNALREVYAHAVLGQHSHVV [WEE1] | 3.42 ± 0.14 | 3.47 ± 0.33 | – | –
ADWWQEPDAKGDEAEAEPEPELA [P3H4] | – | – | 5.67 ± 0.21 | 5.42 ± 0.31
LDTVEEVLSVSKILHIPQVTKLCV [KLHL14] | 2.35 ± 0.48 | 2.79 ± 0.43 | – | –

Sequence | protein stability index [1] | protein stability index [2] | protein stability index (treatment: DMSO, c terminus: native) | protein stability index (treatment: MLN4924 1 uM, 8 h, c terminus: native)
IDEYCVQQLKEFDGKSLVSVTKEG [HSP90AB1] | 5.19 ± 0.25 | 4.99 ± 0.14 | – | –
SCQEVLRKGCLRFQLPERGSRLCL [DFFB] | 2.27 ± 0.48 | 2.4 ± 0.29 | – | –
AEKIEYNESMKAYHNSPAYLAYIN [SMARCE1] | 3.31 ± 0.5 | 3.46 ± 0.31 | – | –
KTTGLEEAAEAETAKDNGEAEDQE [SRPK2] | 5.69 ± 0.14 | 5.73 ± 0.24 | – | –
GIIPYAGIDLAVYETLKNAWLQHY [SLC25A25] | 2.6 ± 0.48 | 2.65 ± 0.67 | – | –
LEQKTQESQKKKQQDDSDEYDDDD [ZNF207] | 5.62 ± 0.12 | 5.61 ± 0.34 | – | –
GRFCGQQNPPVIKSSGRFLWIKFF [NETO1] | 2.1 ± 0.84 | 2.39 ± 1.1 | – | –
SAEWFITAVGAILAGGLCVGIYAT [ACSBG2] | 3.53 ± 0.57 | 3.18 ± 0.091 | – | –
LLAQARDEAQGACLQQKQVVAEAQ [LRRC45] | 4.847 ± 0.003 | 4.9 ± 0.087 | – | –
ALLITLIVVATLPIPVVFVLRHFH [SLC6A17] | 2.73 ± 0.52 | 2.33 ± 0.45 | – | –
VLGTKVDAERDGVKVPTTLAEYCV [CDC34] | 4.073 ± 0.014 | 4.07 ± 0.12 | – | –
ARLTYSIVGNQVQGAPASSFVYVN [PCDHGC5] | 2.38 ± 0.39 | 2.19 ± 0.26 | – | –
GYDGLNILNSVEKYDPHTGHWTNV [KLHL12] | 2.75 ± 0.42 | 3.05 ± 0.19 | – | –
EEAGSQENHPQESKGQPRSQEESE [CHGB] | 5.57 ± 0.25 | 5.64 ± 0.17 | – | –
RPELPPVCRARPRACSHLIRLMQR [RIPK4] | 2.52 ± 0.26 | 2.49 ± 0.31 | – | –
INSIIHNPRAPVIIYKQTKGGVQN [CEP70] | 2.86 ± 0.43 | 3.34 ± 0.51 | – | –
RGRYGPPSRRSENRVVVSGLPPSG [SRSF1] | 4.08 ± 0.14 | 4.16 ± 0.17 | – | –
KGTFKDYVRDRADLNKDKPVIPAA [ETS1] | 4.35 ± 0.13 | 4.43 ± 0.16 | – | –
DLINKMLTINPAKRITASEALKHP [CAMK2D] | 2.49 ± 0.31 | 2.64 ± 0.32 | – | –
LGLPYYETSVFDQFGIKDVFDNAI [RHOBTB1] | 2.34 ± 0.28 | 2.45 ± 0.42 | – | –
VISLLNEPNTFSPANVDASVMYRK [CDC34] | 2.92 ± 0.25 | 3.07 ± 0.21 | – | –
VDSLESHIPSQEVPGTQVGQGGKL [ZNF263] | 5.33 ± 0.2 | 5.16 ± 0.22 | – | –
